Patent publication US20030186281A1, “Modified tetracycline repressor protein compositions and methods of use” (priority 2001, published 2003)
Numbering of substitutions follows the chain as printed. Names and notes keep the numbering of the source.

B1: TetRrevAtc4-13: revTetR(BD) E58N I59T L60F H63Y (protein)
chain: MSRLDKSKVINSALELLNEVGIEGLTTRKLAQKLGVEQPTLYWHVKNKRALLDALAVNTFARYHDYSLPAAGESWQSFLRNNAMSFRRALLRYRDGAKVHLGTRPDEKQYDTVETQLRFMTENGFSLRDGLYAISAVSHFTLGAVLEQQEHTAALTDRPAAPDENLPPLLREALQIMDSDDGEQAFLHGLESLIRGFEVQLTALLQIV
modifications: Modified tetracycline repressor
notes: revTetR(BD) E58N I59T L60F H63Y
B2: TetRrevAF3/8: revTetR(BD) E15V L16L N18H E19D V20D R94P D95H H100N (protein)
chain: MSRLDKSKVINSALVLLHDDGIEGLTTRKLAQKLGVEQPTLYWHVKNKRALLDALAVEILARHHDYSLPAAGESWQSFLRNNAMSFRRALLRYPHGAKVNLGTRPDEKQYDTVETQLRFMTENGFSLRDGLYAISAVSHFTLGAVLEQQEHTAALTDRPAAPDENLPPLLREALQIMDSDDGEQAFLHGLESLIRGFEVQLTALLQIV
modifications: Modified tetracycline repressor
notes: revTetR(BD) E15V L16L N18H E19D V20D R94P D95H H100N
B3: TetRrevAF4/4: revTetR(BD) G24A R94P D95E G102D (protein)
chain: B1 chain with G24A, N58E, T59I, F60L, Y63H, R94P, D95E, G102D
modifications: Modified tetracycline repressor
notes: revTetR(BD) G24A R94P D95E G102D
B4: TetRrevAF4/5: revTetR(BD) E15G L16L D95A V99G (protein)
chain: B1 chain with E15G, N58E, T59I, F60L, Y63H, D95A, V99G
modifications: Modified tetracycline repressor
notes: revTetR(BD) E15G L16L D95A V99G
B5: TetRrevAF4/6: revTetR(BD) E15D L17I N18T E23G A54V D95A (protein)
chain: B1 chain with E15D, L17I, N18T, E23G, A54V, N58E, T59I, F60L, Y63H, D95A
modifications: Modified tetracycline repressor
notes: revTetR(BD) E15D L17I N18T E23G A54V D95A
B6: TetRrevAF4/9: revTetR(BD) L16R E19D E23D D95G V99A G102G (protein)
chain: B1 chain with L16R, E19D, E23D, N58E, T59I, F60L, Y63H, D95G, V99A
modifications: Modified tetracycline repressor
notes: revTetR(BD) L16R E19D E23D D95G V99A G102G
B7: TetRrevAD2/5: revTetR(BD) L17F L55L L60F R62V (protein)
chain: B1 chain with L17F, N58E, T59I, R62V, Y63H
modifications: Modified tetracycline repressor
notes: revTetR(BD) L17F L55L L60F R62V
B8: TetRrevAD2/8: revTetR(BD) V20G D53N A54A A56G V57L I59F L60L R62R (protein)
chain: B1 chain with V20G, D53N, A56G, V57L, N58E, T59F, Y63H
modifications: Modified tetracycline repressor
notes: revTetR(BD) V20G D53N A54A A56G V57L I59F L60L R62R
B9: TetRrevAD2/1: revTetR(BD) G21G L51L D53Y L55L A56P A61E (protein)
chain: B1 chain with E19G, D53Y, A56P, N58E, T59I, F60L, A61E, Y63H
modifications: Modified tetracycline repressor
notes: revTetR(BD) G21G L51L D53Y L55L A56P A61E
B10: TetRrevAF4/13: revTetR(BD) A13A E15D L17L E19V I22I E23K R94H G95N (protein)
chain: B2 chain with V15D, H18N, D19V, D20V, E23K, P94H, H95N, N100H
modifications: Modified tetracycline repressor
notes: revTetR(BD) A13A E15D L17L E19V I22I E23K R94H G95N
B11: TetRrevAF5/1: revTetR(BD) L14F D95A V99G (protein)
chain: B1 chain with L14F, N58E, T59I, F60L, Y63H, D95A, V99G
modifications: Modified tetracycline repressor
notes: revTetR(BD) L14F D95A V99G
B12: TetRrevAtc4-14: revTetR(BD) L51L D53Q V57V E58K L60L A61V R62P H63D (protein)
chain: B1 chain with D53Q, N58K, T59I, F60L, A61V, R62P, Y63D
modifications: Modified tetracycline repressor
notes: revTetR(BD) L51L D53Q V57V E58K L60L A61V R62P H63D
B13: TetRrevAF5/3: revTetR(BD) E15G N18K R94H G96G G102V (protein)
chain: B1 chain with E15G, N18K, N58E, T59I, F60L, Y63H, R94H, G102V
modifications: Modified tetracycline repressor
notes: revTetR(BD) E15G N18K R94H G96G G102V
B14: TetRrevAF5/5: revTetR(BD) L14V L17F V20A I22M L25F D95H (protein)
chain: B1 chain with L14V, L17F, V20A, I22M, L25F, N58E, T59I, F60L, Y63H, D95H
modifications: Modified tetracycline repressor
notes: revTetR(BD) L14V L17F V20A I22M L25F D95H
B15: TetRrevAF5/13: revTetR(BD) L14L V20G V99E (protein)
chain: B1 chain with V20G, N58E, T59I, F60L, Y63H, V99E
modifications: Modified tetracycline repressor
notes: revTetR(BD) L14L V20G V99E
B16: TetRrevAF6/1: revTetR(BD) A13A E19V V20A D95I G96G (protein)
chain: B1 chain with E19V, V20A, N58E, T59I, F60L, Y63H, D95I
modifications: Modified tetracycline repressor
notes: revTetR(BD) A13A E19V V20A D95I G96G
B17: TetRrevAF6/5: revTetR(BD) V20V I22V E23D D95N H100P (protein)
chain: B1 chain with I22V, E23D, N58E, T59I, F60L, Y63H, D95N, H100P
modifications: Modified tetracycline repressor
notes: revTetR(BD) V20V I22V E23D D95N H100P
B18: TetRrev96/99-1: revTetR(BD) G96H V99R (protein)
chain: B1 chain with N58E, T59I, F60L, Y63H, G96H, V99R
modifications: Modified tetracycline repressor
notes: revTetR(BD) G96H V99R
B19: TetRrev96/99-2: revTetR(BD) G99K V99A (protein)
chain: B1 chain with N58E, T59I, F60L, Y63H, G96K, V99A
modifications: Modified tetracycline repressor
notes: revTetR(BD) G99K V99A
B20: TetRrev96/99-3: revTetR(BD) G96E V99T (protein)
chain: B1 chain with N58E, T59I, F60L, Y63H, G96E, V99T
modifications: Modified tetracycline repressor
notes: revTetR(BD) G96E V99T
B21: TetRrev96/99-4: revTetR(BD) G96P V99S (protein)
chain: B1 chain with N58E, T59I, F60L, Y63H, G96P, V99S
modifications: Modified tetracycline repressor
notes: revTetR(BD) G96P V99S
B22: TetRrev96/99-5: revTetR(BD) G96I V99K (protein)
chain: B1 chain with N58E, T59I, F60L, Y63H, G96I, V99K
modifications: Modified tetracycline repressor
notes: revTetR(BD) G96I V99K
B23: TetRrevAtc4-16: revTetR(BD) D53N A54G V57F I59S L60F (protein)
chain: B1 chain with D53N, A54G, V57F, N58E, T59S, Y63H
modifications: Modified tetracycline repressor
notes: revTetR(BD) D53N A54G V57F I59S L60F
B24: TetRrev96/99-6: revTetR(BD) G96N V99Q (protein)
chain: B1 chain with N58E, T59I, F60L, Y63H, G96N, V99Q
modifications: Modified tetracycline repressor
notes: revTetR(BD) G96N V99Q
B25: TetRrev96/99-7: revTetR(BD) G96L V99K (protein)
chain: B1 chain with N58E, T59I, F60L, Y63H, G96L, V99K
modifications: Modified tetracycline repressor
notes: revTetR(BD) G96L V99K
B26: TetRrev96/99-8: revTetR(BD) G96N V99H (protein)
chain: B1 chain with N58E, T59I, F60L, Y63H, G96N, V99H
modifications: Modified tetracycline repressor
notes: revTetR(BD) G96N V99H
B27: TetRrev96/99-9: revTetR(BD) G96H V99N (protein)
chain: B1 chain with N58E, T59I, F60L, Y63H, G96H, V99N
modifications: Modified tetracycline repressor
notes: revTetR(BD) G96H V99N

Tested on: tet operator sequence
Test: β-galactosidase activity of a tetracycline-regulated promoter in transformed E. coli with revTetR, in the presence and absence of anhydrotetracycline (atc)
Type: cell-based, Escherichia coli
Details: RevTetR isolate cultured in the absence of anhydrotetracycline (ATC)
Procedure, shortened: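 TetR(BD) chimera mutants (TetR(B) residues 1–50, TetR(D) 51–208) expressed in E. coli regulating a tet operator-controlled lacZ. β-Galactosidase measured in Miller units at 28 °C and 37 °C with and without anhydrotetracycline; reported as percent of maximal expression without Tet repressor.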

| Molecule | β-Galactosidase Activity, Cultured Without ATC |
| --- | --- |
| B1 | 98.8175 |
| B2 | 95.5476 |
| B3 | 94.4528 |
| B4 | 105.33 |
| B5 | 100.702 |
| B6 | 110.616 |
| B7 | 50.466 |
| B8 | 73.8584 |
| B9 | 34.2242 |
| B10 | 98.8886 |
| B11 | 100.053 |
| B12 | 62.985 |
| B13 | 58.5651 |
| B14 | 100.546 |
| B15 | 105.942 |
| B16 | 72.8186 |
| B17 | 102.848 |
| B18 | 58.4545 |
| B19 | 94.5832 |
| B20 | 103.749 |
| B21 | 109.291 |
| B22 | 57.8391 |
| B23 | 104.174 |
| B24 | 103.602 |
| B25 | 55.0127 |
| B26 | 103.657 |
| B27 | 71.6829 |

Same assay, conditions: RevTetR isolate cultured in the presence of anhydrotetracycline (ATC)

| Molecule | β-Galactosidase Activity, Cultured With ATC |
| --- | --- |
| B1 | 8.1397 |
| B2 | 2.7257 |
| B3 | 3.8273 |
| B4 | 0.9927 |
| B5 | 3.7257 |
| B6 | 1.3761 |
| B7 | 1.4141 |
| B8 | 1.8468 |
| B9 | 1.17 |
| B10 | 2.5827 |
| B11 | 1.072 |
| B12 | 25.025 |
| B13 | 1.8337 |
| B14 | 1.6948 |
| B15 | 4.4642 |
| B16 | 3.7966 |
| B17 | 2.8572 |
| B18 | 25.484 |
| B19 | 31.604 |
| B20 | 31.808 |
| B21 | 32.997 |
| B22 | 17.087 |
| B23 | 16.914 |
| B24 | 28.364 |
| B25 | 13.224 |
| B26 | 24.309 |
| B27 | 14.528 |
